Results reported in paper PMC8184781, “A histone H3K4me1-specific binding protein is required for siRNA accumulation and DNA methylation at a subset of loci targeted by RNA-directed DNA methylation” (Nature Communications, 2021).

Legend:
Assay in all cases: ITC; Microcal PEAQ-ITC, 20 °C; protein about 0.8–0.12 mM (so in the source), peptide about 1.0–1.5 mM; 100 mM NaCl, 20 mM HEPES, 2 mM β-mercaptoethanol (pH 7.0 in the methods, [7.4] in the footnote of Supplementary Table 1)
[1] = molecular target: RDM15 Tudor domain (residues 598-662) D645A (Arabidopsis thaliana)
[2] = molecular target: RDM15 Tudor domain (residues 598-662) Q654A (Arabidopsis thaliana)
[3] = molecular target: RDM15 Tudor domain (residues 598-662), wild type (Arabidopsis thaliana)

Kd [1] | stoichiometry N [1] | Kd [2] | stoichiometry N [2] | stoichiometry N [3] | Kd [3] | Substance
62.7 µM | 0.86 | 60.8 µM | 1.08 | 0.96 | – | H3(1-15) K4me1 peptide
– | – | – | – | 0.9 | 66.2 µM | H3K4me3 peptide
– | – | – | – | 1.03 | 30.9 µM | H3K4me2 peptide
